Molecular target: HCMV Pr S225M (human cytomegalovirus) (UniProt P16753)
Assay: SEC-MALS; HCMV Pr alone on SEC, eluate into Wyatt Dawn Pro and Optilab; concentration not given

“HCMV Pr S225M (from UniProt P16753) (enzyme)” gave a stoichiometry N of 2.

Source: publication doi:10.1101/2025.10.17.683123
